Assays:
HeLa Kyoto [1] = test: thermal stability score vs G1/S (z-score of summed log2 fold changes over temperatures); higher = more thermally stable than in G1/S
HeLa Kyoto [2] = test: solubility change mitosis vs G1/S (difference of NP-40 vs SDS log2 ratios) (log2 ratio difference); higher = more soluble in mitosis
HeLa Kyoto [3] = test: melting temperature (median over replicates), in situ; higher = more thermally stable
HeLa Kyoto [4] = test: solubility in G1/S (NP-40 vs SDS abundance) (log2 ratio); higher = more soluble; conditions: cell cycle stage: G1/S
[5] = cell cycle stage: early G1 (4.5 h after nocodazole release)
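Throughout, for melting temperature (median over replicates), in situ: HeLa Kyoto cells synchronized by double thymidine or nocodazole block, proteins quantified by TMT10plex mass spectrometry, three independent biological replicates.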
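Throughout, for solubility change mitosis vs G1/S (difference of NP-40 vs SDS log2 ratios): synchronized HeLa Kyoto cells (double thymidine block for G1/S, nocodazole release for mitosis), protein amounts in NP-40 versus SDS lysates quantified by mass spectrometry, three biological replicates.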
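Throughout, for solubility in G1/S (NP-40 vs SDS abundance): HeLa Kyoto cells arrested at G1/S by double thymidine block, proteins quantified by TMT10plex mass spectrometry in mild NP-40 versus SDS extracts, three biological replicates.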
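Throughout, for thermal stability score vs G1/S (z-score of summed log2 fold changes over temperatures): synchronized HeLa Kyoto cells, proteins quantified by TMT10plex mass spectrometry, three biological replicates, mitosis taken 0.5 h after nocodazole release, G1/S directly after double thymidine block.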

| Sequence | thermal stability score (HeLa Kyoto [1]; [5]) | thermal stability score (HeLa Kyoto [1]; cell cycle stage: mitosis) | solubility change mitosis (log2) (HeLa Kyoto [2]) | melting temperature (HeLa Kyoto [3]; cell cycle stage: G1/S) | melting temperature (HeLa Kyoto [3]; cell cycle stage: mitosis) | solubility in G1/S (log2) (HeLa Kyoto [4]) |
| --- | --- | --- | --- | --- | --- | --- |
| MATAATSPALKRLDLRDPAALFETHGAEEIRGLERQVRAEIEHKKEELRQMVGERYRDLIEAADTIGQMRRCAVGLVDAVKATDQYCARLRQAGSAAPRPPRAQQPQQPSQEKFYSMAAQIKLLLEIPEKIWSSMEASQCLHATQLYLLCCHLHSLLQLDSSSSRYSPVLSRFPILIRQVAAASHFRSTILHESKMLLKCQGVSDQAVAEALCSIMLLEESSPRQALTDFLLARKATIQKLLNQPHHGAGIKAQICSLVELLATTLKQAHALFYTLPEGLLPDPALPCGLLFSTLETITGQHPAGKGTGVLQEEMKLCSWFKHLPASIVEFQPTLRTLAHPISQEYLKDTLQKWIHMCNEDIKNGITNLLMYVKSMKGLAGIRDAMWELLTNESTNHSWDVLCRRLLEKPLLFWEDMMQQLFLDRLQTLTKEGFDSISSSSKELLVSALQELESSTSNSPSNKHIHFEYNMSLFLWSESPNDLPSDAAWVSVANRGQFASSGLSMKAQAISPCVQNFCSALDSKLKVKLDDLLAYLPSDDSSLPKDVSPTQAKSSAFDRYADAGTVQEMLRTQSVACIKHIVDCIRAELQSIEEGVQGQQDALNSAKLHSVLFMARLCQSLGELCPHLKQCILGKSESSEKPAREFRALRKQGKVKTQEIIPTQAKWQEVKEVLLQQSVMGYQVWSSAVVKVLIHGFTQSLLLDDAGSVLATATSWDELEIQEEAESGSSVTSKIRLPAQPSWYVQSFLFSLCQEINRVGGHALPKVTLQEMLKSCMVQVVAAYEKLSEEKQIKKEGAFPVTQNRALQLLYDLRYLNIVLTAKGDEVKSGRSKPDSRIEKVTDHLEALIDPFDLDVFTPHLNSNLHRLVQRTSVLFGLVTGTENQLAPRSSTFNSQEPHNILPLASSQIRFGLLPLSMTSTRKAKSTRNIETKAQVVPPARSTAGDPTVPGSLFRQLVSEEDNTSAPSLFKLGWLSSMTK [COG1] | -0.0852 | 0.918 | 0.0588 | 49.8 °C | 49.4 °C | -0.122 |
| MATAEVLNIGKKLYEGKTKEVYELLDSPGKVLLQSKDQITAGNAARKNHLEGKAAISNKITSCIFQLLQEAGIKTAFTRKCGETAFIAPQCEMIPIEWVCRRIATGSFLKRNPGVKEGYKFYPPKVELFFKDDANNDPQWSEEQLIAAKFCFAGLLIGQTEVDIMSHATQAIFEILEKSWLPQNCTLVDMKIEFGVDVTTKEIVLADVIDNDSWRLWPSGDRSQQKDKQSYRDLKEVTPEGLQMVKKNFEWVAERVELLLKSESQCRVVVLMGSTSDLGHCEKIKKACGNFGIPCELRVTSAHKGPDETLRIKAEYEGDGIPTVFVAVAGRSNGLGPVMSGNTAYPVISCPPLTPDWGVQDVWSSLRLPSGLGCSTVLSPEGSAQFAAQIFGLSNHLVWSKLRASILNTWISLKQADKKIRECNL [PAICS] | -0.183 | -0.625 | -0.0303 | 63.2 °C | 66.2 °C | 0.271 |
| MATAMDWLPWSLLLFSLMCETSAFYVPGVAPINFHQNDPVEIKAVKLTSSRTQLPYEYYSLPFCQPSKITYKAENLGEVLRGDRIVNTPFQVLMNSEKKCEVLCSQSNKPVTLTVEQSRLVAERITEDYYVHLIADNLPVATRLELYSNRDSDDKKKEKDVQFEHGYRLGFTDVNKIYLHNHLSFILYYHREDMEEDQEHTYRVVRFEVIPQSIRLEDLKADEKSSCTLPEGTNSSPQEIDPTKENQLYFTYSVHWEESDIKWASRWDTYLTMSDVQIHWFSIINSVVVVFFLSGILSMIIIRTLRKDIANYNKEDDIEDTMEESGWKLVHGDVFRPPQYPMILSSLLGSGIQLFCMILIVIFVAMLGMLSPSSRGALMTTACFLFMFMGVFGGFSAGRLYRTLKGHRWKKGAFCTATLYPGVVFGICFVLNCFIWGKHSSGAVPFPTMVALLCMWFGISLPLVYLGYYFGFRKQPYDNPVRTNQIPRQIPEQRWYMNRFVGILMAGILPFGAMFIELFFIFSAIWENQFYYLFGFLFLVFIILVVSCSQISIVMVYFQLCAEDYRWWWRNFLVSGGSAFYVLVYAIFYFVNKLDIVEFIPSLLYFGYTALMVLSFWLLTGTIGFYAAYMFVRKIYAAVKID [TM9SF4] | 1.93 | 4.73 | -0.228 | 52.5 °C | 53.3 °C | -0.198 |
| MATANGAVENGQPDRKPPALPRPIRNLEVKFTKIFINNEWHESKSGKKFATCNPSTREQICEVEEGDKPDVDKAVEAAQVAFQRGSPWRRLDALSRGRLLHQLADLVERDRATLAALETMDTGKPFLHAFFIDLEGCIRTLRYFAGWADKIQGKTIPTDDNVVCFTRHEPIGVCGAITPWNFPLLMLVWKLAPALCCGNTMVLKPAEQTPLTALYLGSLIKEAGFPPGVVNIVPGFGPTVGAAISSHPQINKIAFTGSTEVGKLVKEAASRSNLKRVTLELGGKNPCIVCADADLDLAVECAHQGVFFNQGQCCTAASRVFVEEQVYSEFVRRSVEYAKKRPVGDPFDVKTEQGPQIDQKQFDKILELIESGKKEGAKLECGGSAMEDKGLFIKPTVFSEVTDNMRIAKEEIFGPVQPILKFKSIEEVIKRANSTDYGLTAAVFTKNLDKALKLASALESGTVWINCYNALYAQAPFGGFKMSGNGRELGEYALAEYTEVKTVTIKLGDKNP [ALDH1A3] | -0.893 | -0.266 | -0.0783 | 55.4 °C | 57.5 °C | 0.122 |
| MATATPVPPRMGSRAGGPTTPLSPTRLSRLQEKEELRELNDRLAVYIDKVRSLETENSALQLQVTEREEVRGRELTGLKALYETELADARRALDDTARERAKLQIELGKCKAEHDQLLLNYAKKESDLNGAQIKLREYEAALNSKDAALATALGDKKSLEGDLEDLKDQIAQLEASLAAAKKQLADETLLKVDLENRCQSLTEDLEFRKSMYEEEINETRRKHETRLVEVDSGRQIEYEYKLAQALHEMREQHDAQVRLYKEELEQTYHAKLENARLSSEMNTSTVNSAREELMESRMRIESLSSQLSNLQKESRACLERIQELEDLLAKEKDNSRRMLTDKEREMAEIRDQMQQQLNDYEQLLDVKLALDMEISAYRKLLEGEEERLKLSPSPSSRVTVSRASSSRSVRTTRGKRKRVDVEESEASSSVSISHSASATGNVCIEEIDVDGKFIRLKNTSEQDQPMGGWEMIRKIGDTSVSYKYTSRYVLKAGQTVTIWAANAGVTASPPTDLIWKNQNSWGTGEDVKVILKNSQGEEVAQRSTVFKTTIPEEEEEEEEAAGVVVEEELFHQQGTPRASNRSCAIM [LMNB1] | -12 | -7.18 | 1.92 | 51.1 °C | 50.1 °C | -1.97 |
| MATDELATKLSRRLQMEGEGGGETPEQPGLNGAAAAAAGAPDEAAEALGSADCELSAKLLRRADLNQGIGEPQSPSRRVFNPYTEFKEFSRKQIKDMEKMFKQYDAGRDGFIDLMELKLMMEKLGAPQTHLGLKNMIKEVDEDFDSKLSFREFLLIFRKAAAGELQEDSGLCVLARLSEIDVSSEGVKGAKSFFEAKVQAINVSSRFEEEIKAEQEERKKQAEEMKQRKAAFKELQSTFK [EFHD2] | 1.76 | 0.882 | 0.139 | 52.5 °C | 53.7 °C | 0.681 |
| MATDSWALAVDEQEAAVKSMTNLQIKEEKVKADTNGIIKTSTTAEKTDEEEKEDRAAQSLLNKLIRSNLVDNTNQVEVLQRDPNSPLYSVKSFEELRLKPQLLQGVYAMGFNRPSKIQENALPMMLAEPPQNLIAQSQSGTGKTAAFVLAMLSRVEPSDRYPQCLCLSPTYELALQTGKVIEQMGKFYPELKLAYAVRGNKLERGQKISEQIVIGTPGTVLDWCSKLKFIDPKKIKVFVLDEADVMIATQGHQDQSIRIQRMLPRNCQMLLFSATFEDSVWKFAQKVVPDPNVIKLKREEETLDTIKQYYVLCSSRDEKFQALCNLYGAITIAQAMIFCHTRKTASWLAAELSKEGHQVALLSGEMMVEQRAAVIERFREGKEKVLVTTNVCARGIDVEQVSVVINFDLPVDKDGNPDNETYLHRIGRTGRFGKRGLAVNMVDSKHSMNILNRIQEHFNKKIERLDTDDLDEIEKIAN [DDX19A] | 1.53 | 0.923 | -0.05 | 49.9 °C | 49.9 °C | 0.212 |
| MATDWLGSIVSINCGDSLGVYQGRVSAVDQVSQTISLTRPFHNGVKCLVPEVTFRAGDITELKILEIPGPGDNQHFGDLHQTELGPSGAGCQVGINQNGTGKFVKKPASSSSAPQNIPKRTDVKSQDVAVSPQQQQCSKSYVDRHMESLSQSKSFRRRHNSWSSSSRHPNQATPKKSGLKNGQMKNKDDECFGDDIEEIPDTDFDFEGNLALFDKAAVFEEIDTYERRSGTRSRGIPNERPTRYRHDENILESEPIVYRRIIVPHNVSKEFCTDSGLVVPSISYELHKKLLSVAEKHGLTLERRLEMTGVCASQMALTLLGGPNRLNPKNVHQRPTVALLCGPHVKGAQGISCGRHLANHDVQVILFLPNFVKMLESITNELSLFSKTQGQQVSSLKDLPTSPVDLVINCLDCPENVFLRDQPWYKAAVAWANQNRAPVLSIDPPVHEVEQGIDAKWSLALGLPLPLGEHAGRIYLCDIGIPQQVFQEVGINYHSPFGCKFVIPLHSA [EDC3] | 1.79 | 1.47 | 0.245 | 50.1 °C | 50 °C | -0.0361 |
| MATEHPEPPKAELQLPPPPPPGHYGAWAAQELQAKLAEIGAPIQGNREELVERLQSYTRQTGIVLNRPVLRGEDGDKAAPPPMSAQLPGIPMPPPPLGLPPLQPPPPPPPPPPGLGLGFPMAHPPNLGPPPPLRVGEPVALSEEERLKLAQQQAALLMQQEERAKQQGDHSLKEHELLEQQKRAAVLLEQERQQEIAKMGTPVPRPPQDMGQIGVRTPLGPRVAAPVGPVGPTPTVLPMGAPVPRPRGPPPPPGDENREMDDPSVGPKIPQALEKILQLKESRQEEMNSQQEEEEMETDARSSLGQSASETEEDTVSVSKKEKNRKRRNRKKKKKPQRVRGVSSESSGDREKDSTRSRGSDSPAADVEIEYVTEEPEIYEPNFIFFKRIFEAFKLTDDVKKEKEKEPEKLDKLENSAAPKKKGFEEEHKDSDDDSSDDEQEKKPEAPKLSKKKLRRMNRFTVAELKQLVARPDVVEMHDVTAQDPKLLVHLKATRNSVPVPRHWCFKRKYLQGKRGIEKPPFELPDFIKRTGIQEMREALQEKEEQKTMKSKMREKVRPKMGKIDIDYQKLHDAFFKWQTKPKLTIHGDLYYEGKEFETRLKEKKPGDLSDELRISLGMPVGPNAHKVPPPWLIAMQRYGPPPSYPNLKIPGLNSPIPESCSFGYHAGGWGKPPVDETGKPLYGDVFGTNAAEFQTKTEEEEIDRTPWGELEPSDEESSEEEEEEESDEDKPDETGFITPADSGLITPGGFSSVPAGMETPELIELRKKKIEEAMDGSETPQLFTVLPEKRTATVGGAMMGSTHIYDMSTVMSRKGPAPELQGVEVALAPEELELDPMAMTQKYEEHVREQQAQVEKEDFSDMVAEHAAKQKQKKRKAQPQDSRGGSKKYKEFKF [SF3B2] | -1.42 | -2.09 | 0.237 | 50.5 °C | 49.9 °C | -0.165 |

Reference: the supplement of paper PMC5998384
